Data reported in the DeepSol protein solubility set.

Assay: soluble on expression in E. coli; label from the status in PepcDB or PDB records

Sequence	soluble on expression in E. coli
MKPIQVEREIFRYEQGAIKHIEDSIVTEFPVTIKMNGQEFVTMVSTPEYIEDMVIGFLASEGIIRKYEDIDSVWVQEKEGFVHVTTTKVNPYYEQMQNKRYITSCCGMSRQGFVFANDALSAKKMKGVHVQVAADDCFRLMKEMQQSADTFHRTGGVHNAALCDVNGIILSRMDIGRHNALDKIYGYCLRNDISIKDKIIVFSGRISSEILLKVAKIGCEIILSKSAPTELALQLAEDLGITTIGFIRNHSLNVYTHPERVLNIKLEHHHHHH	soluble
LRARTYGEGGFRVERVLEERPAFTRVQFSYLSDGLRVHGFANLPKGRGPFPVVVVLHGYVEPSRYRLLAYTTPYADFLAERGYLVLHPNFRGHPPSEGAPAQGLRHVYAVDVLNLLAEVRRGAFPQADPARIALFGHSMGGGVAQIVSLVDPGLKGAVLYGSMSGDERRNLERIRYWSGGSRGQELFALSPEVLRQASAWTYLAELSVPYSVHHGTQDAQVPPEWSWELCRRLKALKKPVECFSYPGGHLFRGEVDRVFRERVLAFLGRVL	soluble
TPHLVNLNEDPLMSECLLYYIKDGITRVGQADAERRQDIVLSGAHIKEEHCIFRSERSNSGEVIVTLEPCERSETYVNGKRVSQPVQLRSGNRIIMGKNHVFRFNHPEQARAEREKT	soluble
MVAENQPGHIDQIKQTNAGAVYRLIDQLGPVSRIDLSRLAQLAPASITKIVREMLEAHLVQELEIKEAGNRGRPAVGLVVETEAWHYLSLRISRGEIFLALRDLSSKLVVEESQELALKDDSPLLDRIISHIDQFFIRHQKKLERLTSIAITLPGIIDTENGIVHRMPFYEDVKEMPLGEALEQHTGVPVYIQHDISAWTMAEALFGASRGARDVIQVVIDHNVGAGVITDGHLLHAGSSSLVEIGHTQVDPYGKRCYCGNHGCLETIASVDSILELAQLRLNQSMSSMLHGQPLTVDSLCQAALRGDLLAKDIITGVGAHVGRILAIMVNLFNPQKILIGSPLSKAADILFPVISDSIRQQALPAYSQHISVESTQFSNQGTMAGAALVKDAMYNGSLLIRLLQG	soluble
MQPIPDVNQRIARISAHLHPPKSQMEESSALRRANCRAKGGAPGFKVAILGAAGGIGQPLAMLMKMNPLVSVLHLYDVVNAPGVTADISHMDTGAVVRGFLGQQQLEAALTGMDLIIVPAGVPRKPGMTRDDLFKINAGIVKTLCEGIAKCCPRAIVNLISNPVNSTVPIAAEVFKKAGTYDPKRLLGVTMLDVVRANTFVAEVLGLDPRDVDVPVVGGHAGVTILPLLSQVKPPSSFTQEEISYLTDRIQNGGTEVVEAKAGAGSATLSMAYAAVKFADACLRGLRGDAGVIECAFVSSQVTELPFFASKVRLGRNGIEEVYSLGPLNEYERIGLEKAKKELAGSIEKGVSFIRSHHHHHH	soluble
MSLEILTAGPMLTVQDAGRFGLRHMGVSPAGPIDRAAMALANALVGNDPGAAALEFAGPAGRFRCDRPVRFAVAGADCPLRIDARTVSPGESHRLNPGETLTVGVPEGAVWAYLAFSGAIASPEVLGSRATHLRSGVGGRALGAGDRLPLGEDDPEAPCLRPGLRLEAAAPFRETGPIRLILGPQDDHFAPEVIARLTGCDFTVTPQRDRMAMVLGGVELPAERGHDIVSDGTVPGSVQVPGSGTPLVLLAESQTTGGYPKIGTVASVDLARLAQMPVGARFRFALISAREGEDLWIARQAR	not soluble
MWDERFSQSEYVYGTEPNDFLVSVANQIPQGKILCLAEGEGRNACFLASLGYEVTAVDQSSVGLAKAKQLAQEKGVKITTVQSNLADFDIVADAWEGIVSIFCHLPSSLRQQLYPKVYQGLKPGGVFILEGFAPEQLQYNTGGPKDLDLLPKLETLQSELPSLNWLIANNLERNLDEGAYHQGKAALIQLLGQKLEHHHHHH	soluble
MHESIQMIIDRIDHLVLTVSDISTTIRFYEEVLGFSAVTFKQNRKALIFGAQKINLHQQEMEFEPKASRPTPGSADLCFITSTPINDVVSEILQAGISIVEGPVERTGATGEIMSIYIRDPDGNLIEISQYVLEHHHHHH	not soluble
MATKKCINGHQYDSSIYGDNCPFCPSSHSTRVLDDDTTTGKTQVLGGNMNAETDTIDLGKSGQNNPGGATVIRHVNPTGGTGMASDNRRLVGLLVSYDQNPMGEVYKIYEGRNVIGRAATSDIPIPGDSNMSSQHLLILYREAEGIFWAADQNSSNGTYINGTFVGDRVQLYTNDVIVLGATKMIFLAIPQ	not soluble
GPGSMHLDEMLKEIQDMQEKNWTAVERTDIILAKLCAFLDKLAHSLRFMATSQPSCGAGAVCSAGVAVTTHTHGESARGLRISRDIRTAAAGRPFETEVDD	soluble
MSLSMDTVNYRPSAYPAISLIEADYRQFAFERHYHLDIHIGLITQGVQRFYHQGAWHQVGQGGVVLMSPDELHDGHAHSNTGYQVQVFSIEPEWLQQTLEANQIEQVIGFEQLIVQDPTLFHSLQQLHHLLRQDNLSQLAKDCLPYQGFAPLLERYSYLKQPTVKPLGQHNLALLKEWVLSQLDQPIRLEQLAQLCQLSPTQFQRHFKAQTGLTPYAWLRRLRLEQAMKLLQSGKPGTDVAYQVGFYDQAHFSKAFKATYGLSPSLITRFSEGHHHHHH	not soluble
MGSDKIHHHHHHMLHRTCIQFHKFGNPKDVLQVEYKNIEPLKENEVLVRMLVRPINPSDLIPITGAYAHRIPLPNIPGYEGVGIVEDVGAFVSRDLIGKRVLPLRGEGTWQEYVKTSPDFVVPIPDSINDFTAAQMYINPLTAWVTCTETLNLQRNDVLLVNACGSAIGHLFAQLSQILNFRLIAVTRNNKHTEELLRLGAAYVIDTSTAPLYETVMTLTNGIGADAAIDSIGGPDGNELAFSLRPNGHFLTIGLLSGVQVNWAEIVTKAKVHANIFHLRHWNKEASSYKWQETFRHLIRLVENEQLRFMKVHSTYDLADVKAAVDVVQSAEKTKG	not soluble
MGEEKEIRIIVLEDGEHLESVIRKIEKGWIVRFKRGSSLLGKKVKVFTSICPGNSLEWSEGKDHLAVYCQVECKEAGSFRYWFKIEDSEERGSGYFLVMPELKINGKCLPLDGIACQTYLTKLLGPLSEWKERLEVAHQTGYNMIHLTPIHELGISNSSYSLSDHHSLIKTIQSQDQKFGFEDVQALVGDLERSWNILTVQDVVWNHAAKNATWLLEHPESAYNCLNSPHLRPAYVIDRVYHEFGKQIGEGVWEHRGVPPVVDNIHHVNAIEYLLRAEVLPKADLHEFYQVDLKAMVNLFEVFIKQSSGPTTNPLDGEDVEIEQDLECRRFGNTVDFERSARIFNRHRGDAKSEEERVEKCVRSFEEALNNKNLEAARESWEVILAGLAAVMGGITYERIADNGPKKGLVSPENPLTTDYFLHLEADLGWKSEEKFAYDPEKSKFLMAFNGWVMSSDPMKNFALKESQVYLRRELVCWGDSVKLNYGNKEADSPFLWQYMKEYTQQAARIFHGLRIDNAHGTPIHVAEKLLKTAREVRPDIYVFAELFTGSEHADNMFVNRLGISSLIREAQSAHDSHEQGRLVYRYGGDCVGAFKQKSARLAPKSIAHGLFLDQSHDNPSPIHTRSPFDILPTAAMLTMASCAVGSNRGYDELIRDHIHVVSEKRPYASWCRPDQVSRSQGIIEGRNLLNKLHTWLAEHGYSQVFVDQMNSDIVGITRHNPRTHETVVVVSHTSFSKNYIDWPGGLKHIPIGGVLENVIFEMKLKKVQEEWGTEDPDVLIGLKNYEMEIRENVNLDNGTMFKVHDGYIELTNFPTGSVVGFKIRPSDEATKAFNMIHNSITPEQSEFDSALSRLTYQSFPNLLFHCESEDYATIQQGGYDVPNFGKFVYCGLQGLVPVLEKIRDDNDLGHPLCQNLRDGTWICDYIVGRLAKFEKLGEVSEAIRKFFAPLDHVPYYLRPCYFELLVSYIYGKIRKEALKRMAPQISSSSALVRHLAISTLSFLGYIPGAGLAPIPTSLQIEDQYPSSLAAGLSHFAVGIWRNWGRDTFIALPGCLLSTGRFQEARQIILSFAGAIRHGLIPNLLAEGIGARYNCRDATWFWLVSIVKYVESAPNGVGILEDPVRRIYPNDDSVYGEGEVQQMLIETIYEALDKHFAGIDYRERSAGPQIDEQMRDEGFQVTAGVSRTTGFIYGGNRWNCGTWMDKMGSSERAGNKGEPATPRDGAAVELQGLAYRALKSLKNWKEQGVIQRSGVSDEWTWGFWAQKIRENFEKEFFVDKDSYAEFVNRREIIKDSVGSTLGFTDFQLRCNFGIALAVAPDLMDPKKAWKALDSAEVLLGPLGMKTLDPTDWAYNGYYNNDDDGTDKKTAKGWNYHQGPEWLFVAGYYLQARLRIGDILGGSEKQYAIRQVQERLGNAYKHIISSPWRSLPELTNADGEYCMQSCAAQAWSVGCLIEACVKLNTIEG	not soluble
MKMLEQLEKKLGYTFKDKSLLEKALTHVSYSKKEHYETLEFLGDALVNFFIVDLLVQYSPNKREGFLSPLKAYLISEEFFNLLAQKLELHKFIRIKRGKINETIIGDVFEALWAAVYIDSGRDANFTRELFYKLFKEDILSAIKEGRVKKDYKTILQEITQKRWKERPEYRLISVEGPHHKKKFIVEAKIKEYRTLGEGKSKKEAEQRAAEELIKLLEESE	soluble
MHTFFVTSTGFGVGLTSTSLGLVRALEYGGLKAGFYKPVAQQHPGNSKLEYSTELISRTLGLAPPAPLPLATVEHLLGEGQIDDLMEDIVRRFKQASEGYDVMVVEGMVPTRHVSYASRVNTRLASSLDADIILVSSAEDDALQAITDRIEIQAQFFGGAQNPRLLGVILNKIRTDHSDDLFEQLKNHSTLFHQSSFQILGCIPWEDSLNAPRMADVVTQLQAQ	not soluble
MGHHHHHHSHMLPVELVRHDVKKTDETSQVELMLQVDPDLFWFNGHFTGQPLLPGVAQLDWVMHYATTVLAQGWTFLSIENIKFQQPILPGKTLRLVLIWHAGKQSLTFSYSILEGDTERTASSGKIKLTPIMEDNPCQ	soluble
MEKYQVKFMPDQQVIEVEKGTSLLKAASQAGIFIKSSCGGKGTCGACKVTVISGEAKSERTGNLSPEQLSRGVRLSCHTFVEGDLTVEVPPESRLQAHQVLLENANAALLTETSKDLLTYYGYHPLARKVNIRCSEPTLTDNAGDWARLSLELKRVLQSDKPLTIPLSVLQTLPETLRQAHWDLSVILTDLELGYTVLHVEPANDRPCYGLAIDVGTTTVVVYLVDLDSGEIVDKQGSYNKQAQFGDDVISRIVYAVDSKENMAEIQKAVVDTVNALIDGILERQSLTSQDIASAVIAGNTTMSQLFLGINPRYIRLEPYIPTVNSTPAVSAREIGLRLLPEALIHTYPSVASYVGGDIVSGALATDMANSDEIILFIDIGTNGEIVLGNKDWLVSCACSAGPCFEGGGILFGMRAMPGAIERVDIDPESLDVKLKVVGKIAPVGICGSGLVDCLAKLRKAGIIDRAGNFQLEHPSQSARIRATEDDKEFVLAWAHQAGGDKDIVISENDVKNLIRAKGAIYAGIRSLLQTVALEIDMIERIVIGGGFGNYLNVHDSVEIGLLPDLPQEKFEFIGNSSVKGARLALLSQKAWNEAADLARKMTYIELSIGTTFMDEFVSALFLPHTDLSLFPSVEGTFLEHHHHHH	soluble
VRSTPPASAGRSTPPALAGHSTPPALAGHSTLCGRPVAGDRALIMAIVNRTPDSFYDKGATFSDAAARDAVHRAVADGADVIDVGGVKAGPGERVDVDTEITRLVPFIEWLRGAYPDQLISVDTWRAQVAKAACAAGADLINDTWGGVDPAMPEVAAEFGAGLVCAHTGGALPRTRPFRVSYGTTTRGVVDAVISQVTAAAERAVAAGVAREKVLIDPAHDFGKNTFHGLLLLRHVADLVMTGWPVLMALSNKDVVGETLGVDLTERLEGTLAATALAAAAGARMFRVHEVAATRRVLEMVASIQGVRPPTRTVRGLA	soluble
MKMLVGKIPSELLAKILEKLKPGDKVIVGPKVGIDATAIDFGDYVLVASTDPITGTEEKIGFYAVNINANDVATFGARPKWFLVTILLPEGSEFNDVITIMDEVREVAEGMGISIVGGHTEVTPGLKKPIVVGTMLGEVEKENLVVPNPRPGDAIILTKGAGIEGTSIIAHEREEELKGVFGSNFVERAKAFINEISIVREALLSREFATAMHDPTEGGIANGLHEMADINGLGFRIFANKVIIREETRKICHFYDLDPLALISSGALLISTPRDHAKFLIERLLSHGIQASIIGEFLAEKKRVIIENGAERPLKRPESDELWKVV	soluble
